What all share (assay): fluorescence polarisation
In general terms: Fluorescence polarisation rises when a labelled molecule tumbles more slowly, as on binding a larger partner.

The target in one test is T1, DegS F220A/H198P (E. coli, UniProt P0AEE3 27-355, F220A | H198P).
T1 sequence (looked up): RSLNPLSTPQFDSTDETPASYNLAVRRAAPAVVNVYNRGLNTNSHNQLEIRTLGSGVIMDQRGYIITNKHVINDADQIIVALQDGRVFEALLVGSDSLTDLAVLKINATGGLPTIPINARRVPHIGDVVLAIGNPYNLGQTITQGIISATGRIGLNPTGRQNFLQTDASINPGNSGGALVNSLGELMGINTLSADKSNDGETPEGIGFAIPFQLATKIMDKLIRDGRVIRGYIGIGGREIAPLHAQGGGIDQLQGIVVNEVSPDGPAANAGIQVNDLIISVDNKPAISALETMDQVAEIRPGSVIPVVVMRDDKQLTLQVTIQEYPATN

The target in a further test is T2, DegS H198P/I232A (E. coli, UniProt P0AEE3 27-355, H198P | I232A).
T2 sequence (looked up): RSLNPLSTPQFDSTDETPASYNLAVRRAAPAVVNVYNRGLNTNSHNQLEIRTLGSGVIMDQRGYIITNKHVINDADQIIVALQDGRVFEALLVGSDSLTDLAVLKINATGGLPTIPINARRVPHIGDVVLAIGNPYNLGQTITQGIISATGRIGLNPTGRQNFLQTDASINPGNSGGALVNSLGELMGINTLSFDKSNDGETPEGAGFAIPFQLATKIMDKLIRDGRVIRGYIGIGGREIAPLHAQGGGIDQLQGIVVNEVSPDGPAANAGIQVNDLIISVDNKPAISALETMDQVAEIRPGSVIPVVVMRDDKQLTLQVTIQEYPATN

The next test deals with T3, DegS D221A/H198P (E. coli, UniProt P0AEE3 27-355, D221A | H198P).
T3 sequence (looked up): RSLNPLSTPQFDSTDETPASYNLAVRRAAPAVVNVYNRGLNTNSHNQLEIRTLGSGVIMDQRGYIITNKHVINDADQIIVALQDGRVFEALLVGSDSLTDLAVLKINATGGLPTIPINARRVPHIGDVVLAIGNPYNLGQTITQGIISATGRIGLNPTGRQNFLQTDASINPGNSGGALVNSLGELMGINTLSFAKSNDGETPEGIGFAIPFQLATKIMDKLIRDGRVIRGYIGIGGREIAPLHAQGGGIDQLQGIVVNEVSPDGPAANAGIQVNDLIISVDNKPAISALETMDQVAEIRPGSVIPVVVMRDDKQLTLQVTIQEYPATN

For a further test, the target named is T4, DegS H198P (E. coli, UniProt P0AEE3 27-355, H198P).
T4 sequence (looked up): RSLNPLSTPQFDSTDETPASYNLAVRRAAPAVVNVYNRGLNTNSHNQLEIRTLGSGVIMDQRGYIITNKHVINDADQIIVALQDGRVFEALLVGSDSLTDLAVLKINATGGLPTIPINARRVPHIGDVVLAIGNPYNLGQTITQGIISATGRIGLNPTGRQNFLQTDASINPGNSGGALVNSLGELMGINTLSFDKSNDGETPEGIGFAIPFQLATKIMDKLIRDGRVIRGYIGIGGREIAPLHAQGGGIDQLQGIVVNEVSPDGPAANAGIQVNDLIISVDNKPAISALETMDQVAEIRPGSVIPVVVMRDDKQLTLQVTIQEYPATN

The target of a further test is T5, DegS H198P/E230A (E. coli, UniProt P0AEE3 27-355, H198P | E230A).
T5 sequence (looked up): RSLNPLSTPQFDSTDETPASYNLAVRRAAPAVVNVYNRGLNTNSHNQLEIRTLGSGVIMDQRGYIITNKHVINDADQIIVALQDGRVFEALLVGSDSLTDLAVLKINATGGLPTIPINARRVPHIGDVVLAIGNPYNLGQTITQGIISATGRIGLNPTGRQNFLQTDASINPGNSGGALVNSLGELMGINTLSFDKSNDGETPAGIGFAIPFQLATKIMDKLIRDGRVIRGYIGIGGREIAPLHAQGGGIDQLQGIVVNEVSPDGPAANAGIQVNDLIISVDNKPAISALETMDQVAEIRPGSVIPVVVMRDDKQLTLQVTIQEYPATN

Experimental findings from publication PMC4351158 (Structure (London, England : 1993), 2015) are described below.

Where no end group is shown, it is not given here. fluorescein = fluorescein, a fluorescent label on the peptide N-terminus

As for fluorescein-DNRDGNVYYF [fluorescent OMP peptide fluorescein-DNRDGNVYYF], the Kd in the test with DegS F220A/H198P worked out at 1600 ± 100 nM; with DegS H198P/I232A, 2700 ± 300 nM; with DegS D221A/H198P it was 1700 ± 100 nM; with DegS H198P, 2500 ± 300 nM; in the test with DegS H198P/E230A, 1800 ± 400 nM.

As a reminder, the Kd is the concentration at which binding is half-saturated. A low value points to tighter binding.
